Consider two molecules from patent US20050064384A1 (published 2005).

For experiment [1], the target named is T1, FLAG-tagged SOK (human, UniProt O00506 1-426).
T1 construct: also called SOK1
Kind of experiment: anti-FLAG immunoprecipitation from co-transfected HEK293 cells, anti-HA immunoblot.
Protocol: (§2) FLAG-tagged proteins were immunopreciptated with anti-FLAG M2-agarose, eluted with the excess of the FLAG peptide. The eluates were analyzed by immunoblotting after SDS-PAGE. Upper panel: proteins immunoprecipitated (IP) by FLAG-agarose probed with anti-HA antibody 12CA5 (α-HA). Middle panel: cell extracts probed with anti-FLAG antibody (α-FLAG).

The target of experiment [2] is T2, FLAG-tagged GCK (human, UniProt Q12851 1-820).
T2 sequence: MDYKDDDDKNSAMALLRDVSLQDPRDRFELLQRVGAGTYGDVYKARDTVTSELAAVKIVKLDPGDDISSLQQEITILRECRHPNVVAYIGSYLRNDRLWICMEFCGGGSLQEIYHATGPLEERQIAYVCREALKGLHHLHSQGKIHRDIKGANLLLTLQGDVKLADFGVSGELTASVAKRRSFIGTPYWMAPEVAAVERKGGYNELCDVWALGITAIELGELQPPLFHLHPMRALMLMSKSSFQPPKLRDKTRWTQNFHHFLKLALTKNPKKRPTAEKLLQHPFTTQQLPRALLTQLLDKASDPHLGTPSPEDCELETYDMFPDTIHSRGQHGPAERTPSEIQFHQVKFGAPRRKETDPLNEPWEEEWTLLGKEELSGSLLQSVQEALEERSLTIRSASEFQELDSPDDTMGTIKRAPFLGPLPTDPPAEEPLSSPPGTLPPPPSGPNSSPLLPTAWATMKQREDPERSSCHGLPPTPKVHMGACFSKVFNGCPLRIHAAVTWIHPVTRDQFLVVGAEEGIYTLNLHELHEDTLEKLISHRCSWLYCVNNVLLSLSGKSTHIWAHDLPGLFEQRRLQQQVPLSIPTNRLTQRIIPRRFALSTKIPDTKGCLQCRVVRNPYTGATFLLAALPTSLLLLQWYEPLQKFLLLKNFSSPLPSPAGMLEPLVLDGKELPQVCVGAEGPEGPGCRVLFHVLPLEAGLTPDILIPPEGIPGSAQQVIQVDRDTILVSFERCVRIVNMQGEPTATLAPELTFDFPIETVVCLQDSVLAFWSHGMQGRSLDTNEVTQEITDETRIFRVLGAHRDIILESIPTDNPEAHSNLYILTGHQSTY
The experiment is described as above.
Protocol: as §2

Experiment [3] has as its target T3, FLAG-tagged wild type (wt) MST1 (mouse, UniProt Q9JI11 1-487).
T3 construct: also called FLAG-MST1; full-length MST1
T3 sequence: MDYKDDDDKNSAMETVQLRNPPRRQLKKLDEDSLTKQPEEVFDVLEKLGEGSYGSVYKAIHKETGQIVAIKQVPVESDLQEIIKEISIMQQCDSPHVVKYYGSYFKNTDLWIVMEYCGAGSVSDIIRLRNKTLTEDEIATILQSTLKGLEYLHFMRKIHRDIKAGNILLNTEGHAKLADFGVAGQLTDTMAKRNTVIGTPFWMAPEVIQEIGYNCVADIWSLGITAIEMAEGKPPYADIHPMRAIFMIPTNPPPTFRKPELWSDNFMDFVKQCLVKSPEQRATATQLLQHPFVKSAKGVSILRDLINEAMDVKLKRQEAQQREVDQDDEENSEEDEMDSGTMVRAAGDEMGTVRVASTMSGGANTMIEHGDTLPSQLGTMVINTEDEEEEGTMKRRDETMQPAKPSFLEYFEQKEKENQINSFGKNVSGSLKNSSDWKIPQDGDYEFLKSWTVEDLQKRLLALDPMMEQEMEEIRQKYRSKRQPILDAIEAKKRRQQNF
Kind of experiment: anti-FLAG immunoprecipitation from co-transfected HEK293 cells, FLAG peptide elution, anti-HA immunoblot.
Protocol: as §2

Experiment [4] addresses T4, FLAG-tagged Ha-RasG12V (human, UniProt P01112 1-189).
T4 construct: also called FLAG-V12RAS; FLAG Ha-RasG12V
Kind of experiment: in vitro binding of FLAG-Ras from HEK293 extracts to GST fusion protein immobilized on GSH-agarose, anti-FLAG immunoblot. An excerpt: (§1) Aliquots of extracts from these cells (as shown in the center panel) were adsorbed to the immobilized GST proteins; the beads were washed extensively and eluted with SDS.

The target of experiment [5] is T5, FLAG-tagged Ki-RasG12V (Meleagris gallopavo (Wild turkey), UniProt P79800 1-188).
T5 construct: also called FLAG Ki-RasG12V
The description is as above.
Source text: as §1

T1 sequence (O00506 other isoform, or with tags, fused parts or gaps limits assumed): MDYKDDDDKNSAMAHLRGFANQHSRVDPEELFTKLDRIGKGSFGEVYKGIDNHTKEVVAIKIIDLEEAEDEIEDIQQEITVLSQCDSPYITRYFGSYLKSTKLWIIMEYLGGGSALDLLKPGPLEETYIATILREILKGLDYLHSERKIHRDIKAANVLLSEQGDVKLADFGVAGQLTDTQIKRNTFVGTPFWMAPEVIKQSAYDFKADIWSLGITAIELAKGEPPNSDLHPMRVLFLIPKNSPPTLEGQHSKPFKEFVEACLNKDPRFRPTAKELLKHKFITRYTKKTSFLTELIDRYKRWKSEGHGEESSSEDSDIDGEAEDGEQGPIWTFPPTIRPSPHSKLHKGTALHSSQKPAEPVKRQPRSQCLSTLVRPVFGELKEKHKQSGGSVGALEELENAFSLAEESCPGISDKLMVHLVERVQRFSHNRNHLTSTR

B1: HA-NORE1 (other)
chain: MYPYDVPDYAMASPAIGQRPYPLLLDPEPPRYLQSLGGTEPPPPARPRRCIPTALIPAAGASEDRGGRRSGRRDPEPTPRDCRHARPVRPGLQPRLRLRPGSHRPRDVRSIFEQPQDPRVLAERGEGHRFVELALRGGPGWCDLCGREVLRQALRCANCKFTCHSECRSLIQLDCRQKGGPALDRRSPGSTLTPTLNQNVCKAVEETQHPPTIQEIKQKIDSYNSREKHCLGMKLSEDGTYTGFIKVHLKLRRPVTVPAGSGPSPSMDAIKEVNPAATTDKRTSFYLPLDAIKQLHISSTTTVSEVIQGLLKKFMVVDNPQKFALFKRIHKDGQVLFQKLSIADYPLYLRLLAGPDTDVLSFVLKENETGEVEWDAFSIPELQNFLTILEKEEQDKIHQLQKKYNKFRQKLEEALRESQGKPG
notes: also called recombinant hemagglutinin (HA)-tagged NORE fusion polypeptide
In the case of B1, the binding result in experiment [1] is reported as “no binding”; in experiment [2], “no binding”; in experiment [3] it was “binds”.

B2: GST-NORE (7-413) (other, not shown: a dimerising Fc or GST)
chain: GQRPYPLLLDPEPPRYLQSLGGTEPPPPARPRRCIPTALIPAAGASEDRGGRRSGRRDPEPTPRDCRHARPVRPGLQPRLRLRPGSHRPRDVRSIFEQPQDPRVLAERGEGHRFVELALRGGPGWCDLCGREVLRQALRCANCKFTCHSECRSLIQLDCRQKGGPALDRRSPGSTLTPTLNQNVCKAVEETQHPPTIQEIKQKIDSYNSREKHCLGMKLSEDGTYTGFIKVHLKLRRPVTVPAGSGPSPSMDAIKEVNPAATTDKRTSFYLPLDAIKQLHISSTTTVSEVIQGLLKKFMVVDNPQKFALFKRIHKDGQVLFQKLSIADYPLYLRLLAGPDTDVLSFVLKENETGEVEWDAFSIPELQNFLTILEKEEQDKIHQLQKKYNKFRQKLEEALRESQGKPG
As for B2, the binding result in experiment [4] and in experiment [5] was “binds” each time.
